Measured values reported in paper PMC2888818.

B1: rsmZ upstream 35mer (dsDNA)
DNA 1: GTAATTGATGTAAGAAATTTCTCAATTCCATAGA
DNA 2: TCTATGGAATTGAGAAATTTCTTACATCAATTAC
B2: rsmY upstream 35mer (dsDNA)
DNA 1: CTCTTCTTAATTGAGAAATTTCTTACATATTACTGC
DNA 2: GCAGTAATATGTAAGAAATTTCTCAATTAAGAAGAG

Biological target: LetA (UniProt Q8KQL1 1-219)
Test: EMSA

Binder	binding result
B1	binds
B2	binds
